Measured values: article PMC7112440
Like-named read-outs stand apart in the source and are kept apart here.

Assays:
[1] = target: concanavalin A (Con A) isolated from Canavalia ensiformis (Jack bean) (Canavalia ensiformis); assay: capture on a column of Con A-immobilised polyacrylate beads
[2] = target: concanavalin A (Con A) isolated from Canavalia ensiformis (Jack bean) (Canavalia ensiformis); assay: as above; remark: listed apart in the source
[3] = target: viral hemorrhagic septicemia virus (VHSV) genotype IVa; assay: SPR
[4] = target: human norovirus HuNoV (GII.4), virus from a positive stool sample (human norovirus GII.4); assay: SPR
[5] = target: human norovirus HuNoV (GII.4), virus from a positive stool sample (human norovirus GII.4); assay: BLI

Substance | virus recovery (%) [1] [%] | further results
human norovirus HuNoV GII.8, virus from a positive stool sample (complex) | 77.8 | 
human norovirus HuNoV GI.3, virus from a positive stool sample (complex) | 68.5 | 
human norovirus HuNoV GII.6, virus from a positive stool sample (complex) | 41.8 | 
human norovirus HuNoV (GII.4), virus from a positive stool sample (complex) | 90.6 | HuNoV recovery (%) from lettuce [2]: 89.5%; HuNoV recovery (%) from milk [2]: 60.8%; HuNoV recovery (%) from strawberry [2]: 70.8%; virus recovery (%) [2]: > 90%
human norovirus HuNoV GII.2, virus from a positive stool sample (complex) | 85.2 | 
human norovirus HuNoV GII.17, virus from a positive stool sample (complex) | 61.4 | 
concanavalin A (Con A) isolated from Canavalia ensiformis (Jack bean) (natural protein) |  | Kd [3]: 710 nM; Kd [4]: 71.5 nM; association, fold over the commercial HuNoV antibody [5]: 10 fold
human norovirus HuNoV GI.8, virus from a positive stool sample (complex) | 56.2 | 
